In patent publication US12303551B2, “Cellular immunotherapy compositions and uses thereof” (CERO THERPEUTICS HOLDINGS, INC., priority 2018, dated 2025):

Tests used:
SCC152 target cells = test: Phagocytosis of SCC152 by CD4+ T cell/CER, fluorescence microscopy with hybrid capture; type: cell-based; details: TRAF-domain CERs, 4 hours, 1:1:0.5 (CD8:CD4:target cell); versus CD4+ control + CD8+/E7 TCR
Procedure: (§1) FIG. 28 is a bar graph representing quantification of CD4+ T cell-CER mediated phagocytosis of SCC152 target cells. Results calculated as ((number of phagocytic target events)/(total number of effectors))*100 from 3×3 40× images, 4 hours after initiation of co-culture assay. CD8+ T cells transduced with HPV16 E7 TCR and CD4+ T cells transduced with selected CERs (CER5, CER17, CER19, CER21, CER23, CER26, CER27, CER103b, CER104, CER105, CER106, or CER116) were co-cultured with SCC152 squamous head and neck carcinoma target cells at a 1:1:0.5 ratio for 4 hours and imaged.
as §1, with “29” for “28”, “(median area ratio” for “((number”, “of” for “of phagocytic”, “events in effector cells*% phagocytosis)” for “events)/(total number of effectors))*100”
(§2) FIG. 55 is a bar graph representing quantification of CD4+ T cell-CER mediated phagocytosis of SCC152 target cells. Percent phagocytosis was calculated as ((number of phagocytic target events)/(total number of effector cells))*100. These numbers were calculated from 3×3 images captured by Keyence BZ-X710 fluorescence microscope at 40× resolution, 4 hours after initiation of co-culture assay. CD8+ T cells transduced with HPV16 E7 TCR and CD4+ T cells transduced with a selected CER (CER29, CER30, CER110, CER112, CER113, CER114, CER116, or CER117) were co-cultured with SCC152 target cells at a 1:1:0.5 ratio (CD8:CD4:target cell) for 4 hours and imaged.
as §2, with “56” for “55”, “Adjusted phagocytic index” for “Percent phagocytosis”, “(median area ratio” for “((number”, “of” for “of phagocytic”, “events in” for “events)/(total number of”, “cells*% phagocytosis).” for “cells))*100.”
Phagocytic activity of CD4+ T cell/CER+CD8+ T cell/HPV16 E7 TCR combinations co-cultured with SCC152 cells was visualized and quantified using KEYENCE BZ-X710 fluorescence microscope, […] and hybrid capture software.

SCC152 cells = test: Elimination of GFP-expressing SCC152 target cells over time (quantification and time lapse imaging); type: cell-based
Procedure: Target SCC152 cells were co-cultured with CD8+ T cells transduced with HPV E7 TCR+CD4+ T cells transduced with a selected CER, or controls (CD8+ T cell transduced with HPV E7 TCR+CD4+ transduced control) at a 1:1:1 ratio. The number of target cells were quantified using imaging software. 0 hours, 24 hours, and 48 hours are shown from left to right.
(§3) FIG. 21 is time lapse imaging from 96-well co-culture experiments comprising CD8+ T cells transduced with HPV16 E7 TCR+CD4+ T cells transduced with CER5, CER17 or CER19 incubated with SCC152 target cells at a 1:1:1 ratio. SCC152 HPV+ target cells were quantified using automated cell counting software.
as §3, with “22” for “21”, “CER21, CER23” for “CER5, CER17”, “CER26” for “CER19”
as §3, with “23” for “21”, “CER103b, CER104” for “CER5, CER17”, “CER105” for “CER19”
as §3, with “24” for “21”, “CER106, CER116” for “CER5, CER17”, “CER27” for “CER19”
FIG. 57 is a bar graph showing quantification of loss of SCC152 HPV16+ target cells over time during co-culture assays. SCC152 cells were transduced with green fluorescent protein (GFP) and co-cultured with CD8+ T cells transduced with HPV16 E7 TCR and CD4+ T cells transduced with a selected CER (CER29, CER30, CER110, CER112, CER113, CER114, CER116, or CER117) or a CD4+ T cell control at a 1:1:1 ratio (CD8:CD4:target cell). The number of target cells was quantified at various time points during co-culture (0 hrs, 12 hrs, 24 hrs, and 36 hrs) using fluorescence microscopy and imaging software.
(§4) FIG. 58 are fluorescence micrograph images of the co-culture assay described in FIG. 57, showing clearance of the SCC152 cells (pink) as co-culture with CD8+ T cells transduced with HPV16 E7 TCR and CD4+ T cells transduced with a selected CER (columns from left to right: control, CER29, CER30, CER110, or CER112) progresses (rows from top to bottom: 0 hrs, 12 hrs, 24 hrs, and 36 hrs).
as §4, with “59” for “58”, “CER113, CER114, CER116,” for “CER29, CER30, CER110,”, “CER117)” for “CER112)”
(§5) Elimination of target SCC152 cells was also detected by quantifying green fluorescent protein expression by SCC152 cells over time (0 hr, 24 hr, 48 hr) during co-incubation with CD8+ T cells transduced with HPV16 E7 specific TCR+ CD4 T cells transduced with selected CER (see, FIG. 20).
as §5, with “hr, 12 hr,” for “hr,”, “hr, 36” for “hr, 48”, “TCR+ CD4+” for “TCR+ CD4”, “CER (CER29, CER30, CER110, CER112, CER113, CER114, CER116, or CER117)” for “CER”, “FIG. 57).” for “FIG. 20).”

B1: CER110: Chimeric engulfment receptor: Tim4 binding, Tim4 transmembrane, TRAF6 and DAP12 signaling; SEQ ID NO: 145 (protein)
chain: MSKGLLLLWLVTELWWLYLTPAASEDTIIGFLGQPVTLPCHYLSWSQSRNSMCWGKGSCPNSKCNAELLRTDGTRIISRKSTKYTLLGKVQFGEVSLTISNTNRGDSGVYCCRIEVPGWFNDVKKNVRLELRRATTTKKPTTTTRPTTTPYVTTTTPELLPTTVMTTSVLPTTTPPQTLATTAFSTAVTTCPSTTPGSFSQETTKGSAFTTESETLPASNHSQRSMMTISTDIAVLRPTGSNPGILPSTSQLTTQKTTLTTSESLQKTTKSHQINSRQTILIIACCVGFVLMVLLFLAFLMSLLNCENSCGSSQSESDCCVAMASSCSAVTKDDSVGGTASTGNLSSSFMEEIQGYDVEFDPPLESKYECPICLMALREAVQTPCGHRFCKACIIKSIRDAGHKCPVDNEILLENQLFPDNFAKREILSLMVKCPNEGCLHKMELRHLEDHQAHCEFALMDCPQCQRPFQKFHINIHILKDCPRRQVSCDNCAASMAFEDKEIHDQNCPLANVICEYCNTILIREQMPNHYDLDCPTAPIPCTFSTFGCHEKMQRNHLARHLQENTQSHMRMLAYFLGRLVPRGRGAAEAATRKQRITETESPYQELQGQRSDVYSDLNTQRPYYK
modifications: CER110, amino acids 1-22 are signal peptide
With B1 as the molecule, how does the “engulfment of SCC152 target cells (percent phagocytosis, adjusted phagocytic index)” value (SCC152 target cells) read?
The value was “enhanced engulfment”.

B2: CER29: Chimeric engulfment receptor: Tim4 binding, Tim4 transmembrane, TRAF6 signaling; SEQ ID NO: 99 (protein)
chain: MSKGLLLLWLVTELWWLYLTPAASEDTIIGFLGQPVTLPCHYLSWSQSRNSMCWGKGSCPNSKCNAELLRTDGTRIISRKSTKYTLLGKVQFGEVSLTISNTNRGDSGVYCCRIEVPGWFNDVKKNVRLELRRATTTKKPTTTTRPTTTPYVTTTTPELLPTTVMTTSVLPTTTPPQTLATTAFSTAVTTCPSTTPGSFSQETTKGSAFTTESETLPASNHSQRSMMTISTDIAVLRPTGSNPGILPSTSQLTTQKTTLTTSESLQKTTKSHQINSRQTILIIACCVGFVLMVLLFLAFLMSLLNCENSCGSSQSESDCCVAMASSCSAVTKDDSVGGTASTGNLSSSFMEEIQGYDVEFDPPLESKYECPICLMALREAVQTPCGHRFCKACIIKSIRDAGHKCPVDNEILLENQLFPDNFAKREILSLMVKCPNEGCLHKMELRHLEDHQAHCEFALMDCPQCQRPFQKFHINIHILKDCPRRQVSCDNCAASMAFEDKEIHDQNCPLANVICEYCNTILIREQMPNHYDLDCPTAPIPCTFSTFGCHEKMQRNHLARHLQENTQSHMRMLA
modifications: CER29, amino acids 1-22 are signal peptide
With B2 as the molecule, how does the “engulfment of SCC152 target cells (percent phagocytosis, adjusted phagocytic index)” value (SCC152 target cells) read?
The value was “enhanced engulfment”.

B3: CER30: Chimeric engulfment receptor: Tim4 binding, Tim4 transmembrane, TRAF2 signaling; SEQ ID NO: 120 (protein)
chain: MSKGLLLLWLVTELWWLYLTPAASEDTIIGFLGQPVTLPCHYLSWSQSRNSMCWGKGSCPNSKCNAELLRTDGTRIISRKSTKYTLLGKVQFGEVSLTISNTNRGDSGVYCCRIEVPGWFNDVKKNVRLELRRATTTKKPTTTTRPTTTPYVTTTTPELLPTTVMTTSVLPTTTPPQTLATTAFSTAVTTCPSTTPGSFSQETTKGSAFTTESETLPASNHSQRSMMTISTDIAVLRPTGSNPGILPSTSQLTTQKTTLTTSESLQKTTKSHQINSRQTILIIACCVGFVLMVLLFLAFLMAAASVTPPGSLELLQPGFSKTLLGTKLEAKYLCSACRNVLRRPFQAQCGHRYCSFCLASILSSGPQNCAACVHEGIYEEGISILESSSAFPDNAARREVESLPAVCPSDGCTWKGTLKEYESCHEGRCPLMLTECPACKGLVRLGEKERHLEHECPERSLSCRHCRAPCCGADVKAHHEVCPKFPLTCDGCGKKKIPREKFQDHVKTCGKCRVPCRFHAIGCLETVEGEKQQEHEVQWLREHLAMLLSSVLEAKPLLGDQSHAGSELLQRCESLEKKTATFENIVCVLNREVERVAMTAEAC
modifications: CER30, amino acids 1-22 are signal peptide
Which results are given for B3?
elimination of SCC152 cells, time lapse imaging (SCC152 cells; 0 to 36 hrs, compared to the control): enhanced elimination of SCC152 cells; elimination of SCC152 cells (GFP quantification) (SCC152 cells; by 36 hrs, 1:1:1 ratio (CD8:CD4:target cell), compared to control): nearly complete elimination; engulfment of SCC152 target cells (percent phagocytosis, adjusted phagocytic index) (SCC152 target cells): enhanced engulfment
